Reference: patent publication US20120329995A1

Molecular target: human CD3 (human) (UniProt P07766)
Assay: flow cytometry, serially diluted antibody on Jurkat cells, PE goat anti-mouse IgG

Chain of human CD3 (human) (P07766 23-207): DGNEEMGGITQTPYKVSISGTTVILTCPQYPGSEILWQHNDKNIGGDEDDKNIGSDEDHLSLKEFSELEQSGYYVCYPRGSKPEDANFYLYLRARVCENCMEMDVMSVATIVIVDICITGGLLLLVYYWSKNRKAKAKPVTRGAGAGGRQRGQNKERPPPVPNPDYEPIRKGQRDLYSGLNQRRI

antibody concentration giving comparable binding: 0.4 ng/mL
Substance: OKT3 antibody (mouse anti-human CD3, recombinant, made in 293T cells from pME-wtOKT3 HC and pME-wtOKT3 LC)
